Laboratory results reported in article PMC10210160, “Structural and biochemical elucidation of class I hybrid cluster protein natively extracted from a marine methanogenic archaeon” (Frontiers in Microbiology, 2023).

B1: MtHCP (hybrid cluster protein, class I) (Methanothermococcus thermolithotrophicus DSM 2095) (protein)
chain: MRPSKMFCYQCQETAKNTGCTIIGVCGKKDNVANLQDLLVYTVKGLAVVRENLGYSNDKTDRYIVDALFTTITNVNFDDKDIIEKIKEGLALREEAASKSTCPGCGGDLPDCATWTADSDDEIIKKANSLEVSVLATENEDVRSLRELLTYGVKGIAAYLHHAMVLGYDNKDIHKFIRKALVATTDDSLSADELTALVLECGKYAVDTMALLDKANTETYGHPEITEVDIGVRNNPGILISGHDLKDLEQLLEQTKGTGVDVYTHSEMLPAHYYPAFKKYDHFVGNYGGSWWRQKEEFEAFNGPIVMTTNCLVPPAESYKDRIYTTGVVGFPGLKRIPEDENGNKDFSEVIEQAKKCAPPKQLETGKIVGGFAHNQVLALADKVVEAVKSGAIRKFVVMAGCDGRHPSREYYTEFAKKLPNDTVILTAGCAKYRYNKLGLGDIGGIPRVLDAGQCNDCYSLAVIALKLKEVFELDDINDLPIAFNVAWYEQKAVAVLLALLYLGVKDIVLGPTLPAFLSPNVAKVLVEKFGISGITTVDEDIERLINK
notes: native anaerobic purification from the archaeon, untagged; five extra N-terminal residues versus WP_026182881.1 (mispredicted start Met)

How the values were obtained:
[1] = molecular target: T1, MtHCP (hybrid cluster protein, class I) (Methanothermococcus thermolithotrophicus, UniProt A0AA82WPD8); assay: X-ray crystal structure, […] Å; format: binding; conditions: as isolated, reduced state (MtHCPred)
T1 construct: gene hcp; native anaerobic purification from the archaeon, untagged; five extra N-terminal residues versus WP_026182881.1 (mispredicted start Met)
T1 sequence (A0AA82WPD8 1-548): B1 chain

purified protein = substrate: NO; assay: purified protein; format: biochemical, Methanothermococcus thermolithotrophicus; conditions: 10 mM methyl viologen, 75 μM dithionite, 10 μM EDTA, 50 mM HEPES pH 7.35, 50°C, anaerobic

Molecule	X-ray crystal structure, 1.45 Å [1]	Km (purified protein)	kcat (purified protein)
[S]12[Fe]3[S]4[Fe]1[S]1[Fe]2[S]3[Fe]41 [[4Fe-4S] cluster]	harbouring a cubane [4Fe-4S] cluster and the hybrid cluster		
B1		2200 ± 500 µM	0.072 s⁻¹
